Assay results from patent US20210355175A1 (University of Washington, published 2021).

T1: 2′-1′_6-residue_linker
T1 construct: also called 1′-2′; 1′-2′ with a 6-residue linker
T1 chain: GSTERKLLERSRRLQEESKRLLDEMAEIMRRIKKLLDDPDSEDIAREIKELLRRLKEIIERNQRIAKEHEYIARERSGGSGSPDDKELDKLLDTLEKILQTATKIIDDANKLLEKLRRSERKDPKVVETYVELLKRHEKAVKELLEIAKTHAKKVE

T2: DHD37_1:234 chain b
T2 construct: Single-helix monomer of the backbone-permuted 3+1 heterodimer
T2 chain: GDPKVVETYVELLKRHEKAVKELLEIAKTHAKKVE

T3: DHD17 chain b
T3 construct: Co-expressed input protein of the NOT gate; also called 8′
T3 chain: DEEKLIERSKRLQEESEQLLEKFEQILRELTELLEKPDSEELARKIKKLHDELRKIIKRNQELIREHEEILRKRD

T4: DHD127 chain b
T4 construct: also called DHD_127 b
T4 chain: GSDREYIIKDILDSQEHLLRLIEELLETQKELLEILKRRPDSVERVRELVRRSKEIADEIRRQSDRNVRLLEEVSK

T5: DHD39 chain b
T5 construct: In the NOR gate it was fused to the Gal4 DBD; also called 10′; DHD_39 b
T5 chain: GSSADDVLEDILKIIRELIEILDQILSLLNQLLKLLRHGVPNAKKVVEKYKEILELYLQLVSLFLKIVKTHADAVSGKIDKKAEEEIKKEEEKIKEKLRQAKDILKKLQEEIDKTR

T6: DHD9 chain b
T6 construct: also called 9b; 9_b
T6 chain: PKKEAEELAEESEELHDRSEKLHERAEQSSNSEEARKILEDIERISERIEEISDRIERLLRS

T7: DHDSC_9-13-37 chain 13b
T7 chain: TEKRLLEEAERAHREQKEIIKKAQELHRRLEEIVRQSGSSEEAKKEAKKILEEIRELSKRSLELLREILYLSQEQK

B1: DHD37_ABXB chain a (designed binder)
chain: DSDEHLKKLKTFLENLRRHLDRLDKHIKQLRDILSENPEDERVKDVIDLSERSVRIVKTVIKIFEDSVRKKE
notes: In Y2H it was fused to Gal4 AD or DBD
B2: DHD37_1:234 chain a (designed binder)
chain: DSDEHLYKLKTFLENLRRHLDRLDKHIKQLRDILSENPEDERVKDAIDLSERSVRIVKTVIKIFEDSVRKKEKRPIDKRDDKELDKLLDTLEKILQTATKIIDDANKLLEYLRR
notes: Three-helix monomer of the backbone-permuted 3+1 heterodimer
B3: DHD17 chain a (designed binder)
chain: DRKDLLKRNIKLLDRHLKILDTILKLLEKLSELLKKSSSEEVVKEYKKILDEIRKLLEESKEIHKESKEILERES
notes: In the NOT gate it was fused to both Gal4 AD and DBD; also called DHS 17 a
B4: DHD13_XAAA chain b (designed binder)
chain: GTEKRLLEEAERAHREQKEIIKKAQELHRRLEEIVRQSGSSEEAKKEAKKILEEIRELSKRSLELLREILYLSQEQKGSLVPR
notes: also called 9′
B5: DHD127 chain a (designed binder)
chain: GSPRSYLLKELADLSQHLVRLLERLVRESERVVEVLERGEVDEEELKRLEDLHRELEKAVREVRETHREIRERSR
notes: also called DHD_127 a
B6: DHD13_XAAA chain a (designed binder)
chain: GTKEDILERQRKIIERAQEIHRRQQEILEELERIIRKPGSSEEAMKRMLKLLEESLRLLKELLELSEESAQLLYEQR
B7: DHDSC_9-13-37 scaffold, chain 9a-13a-37a (designed binder)
chain: PKEEARELIRKQKELIKEQKKLIKEAKQKSDSRDAERIWKRSREINRESKKINKRIKELIKSGSEGSGSEGSGSTKEDILERQRKIIERAQEIHRRQQEILEELERIIRKPGSSEEAMKRMLKLLEESLRLLKELLELSEESAQLLYEQRGSEGSGSEGSGSDSDEHLKKLKTFLENLRRHLDRLDKHIKQLRDILSENPEDERVKDVIDLSERSVRIVKTVIKIFEDSVRKKE
B8: DHD37_ABXB chain b (designed binder)
chain: GSDDKELDKLLDTLEKILQTATKIIDDANKLLEKLRRSERKDPKVVETYVELLKRHEKAVKELLEIAKTHAKKVE
notes: Used in Y2H as a co-expressed input or fused to Gal4 AD/DBD; also called 1′; 1′ (b)
B9: DHD39 chain a (designed binder)
chain: DHSRKLEEILDRLRKHVKRLLEHLRELLSLVKENPEDKDLVEVLELSLAILRRSLEAVEAFLKSVTKKDPDDEDLRRKADEIRKEVEEIKKSLAEVEKEIYKLK
notes: also called 10; DHD_39 a

Columns and labels:
2′-1′_6-residue_linker [1] = molecular target: T1, 2′-1′_6-residue_linker; experiment: thermodynamic model matched to native MS titration data
From the text: (§1) We studied the cooperativity of the induced dimerizer system in vitro using native mass spectrometry (FIG. 11F). […] We define cooperativity as the ratio of the affinities in the presence and absence of the other monomer, which in our model directly relates to the free energy of opening of the dimerizer (c=e^ΔG^ₒₚₑₙ^{/RT}, see supplementary materials).

2′-1′_6-residue_linker [2] = molecular target: T1, 2′-1′_6-residue_linker; experiment: native mass spectrometry, 10 µM of 1 and 1′-2′; bound from the detection limit of 0.0375 µM
2′-1′_6-residue_linker [3] = molecular target: T1, 2′-1′_6-residue_linker; experiment: calculated from the cooperativity factor fitted to native MS data
From the text: as §1
We experimentally estimated K₁ using native MS experiments.

DHD37_ABXB chain b = molecular target: B8; experiment: individual yeast two-hybrid experiments
DHD37_1:234 chain b = molecular target: T2, DHD37_1:234 chain b; experiment: X-ray crystal structure of the heterodimer
From the text: (§2) The X-ray data sets were collected at the Advanced Light Source at Lawrence Berkeley National Laboratory with beamlines 8.2.1 and 8.2.2. Data sets were indexed and scaled using either XDS³³ or HKL2000³⁴. Initial models were generated by the molecular-replacement method with the program PHASER³⁵ within the Phenix™ software suite³⁶, using the design models as the initial search models. Efforts were made to reduce model bias through refinement with simulated annealing using Phenix.Refine™³⁷, or, if the resolution was sufficient, by using Phenix.Autobuild™³⁸ with rebuild-in-place set to false, simulated annealing and prime-and-switch phasing. Iterative rounds of manual building in COOT³⁹ and refinement in Phenix™ were used to produce the final models. […] RMSDs of bond lengths, angles and dihedrals from ideal geometries were calculated with Phenix™³⁶.

yeast two-hybrid = molecular target: the molecule itself; experiment: yeast two-hybrid
DHD17 chain b = molecular target: T3, DHD17 chain b; experiment: yeast two-hybrid
DHD127 chain b = molecular target: T4, DHD127 chain b; experiment: X-ray crystal structure of the heterodimer
From the text: as §2

DHD13_XAAA chain b = molecular target: B4; experiment: yeast two-hybrid competition by the co-expressed unfused monomer
DHD37_ABXB chain a = molecular target: B1; experiment: individual yeast two-hybrid experiments
DHD39 chain b = molecular target: T5, DHD39 chain b; experiment: individual yeast two-hybrid experiments
DHD9 chain b = molecular target: T6, DHD9 chain b; experiment: co-expression in E. coli, one b monomer His-tagged
DHDSC_9-13-37 chain 13b = molecular target: T7, DHDSC_9-13-37 chain 13b; experiment: co-expression in E. coli, one b monomer His-tagged

## B1
2′-1′_6-residue_linker [1]
  cooperativity c (ratio of the affinities in the presence and absence of the other monomer): 991000
2′-1′_6-residue_linker [2]
  Kd: 2.65 mM
2′-1′_6-residue_linker [3]
  Kd: 9.91 mM
DHD37_ABXB chain b
  binding result: binds

## B2
DHD37_1:234 chain b
  binding result: binds

## B3
Yeast two-hybrid
  binding result: binds
DHD17 chain b
  binding result: binds

## B4
DHD37_ABXB chain b
  binding result: binds

## B5
DHD127 chain b
  binding result: binds

## B6
DHD13_XAAA chain b
  binding result: binds
DHD37_ABXB chain a
  binding result: binds
DHD39 chain b
  binding result: binds

## B7
DHD9 chain b
  binding result: binds
DHDSC_9-13-37 chain 13b
  binding result: binds

## B8
DHD39 chain b
  binding result: binds

## B9
DHD39 chain b
  binding result: binds
